# Experimental data as given in publication PMC12292641.
# Target: PpbHLH1 (Phalaenopsis pulcherrima)
substance,measurement,value
PpMYB1 (natural protein),"dual-luciferase assay in tobacco leaves: PpANS promoter activity with PpMYB1 and PpbHLH1 co-expressed, against PpMYB1 alone",4.7 fold
